Experimental data as given in paper PMC11010949 (Protein Science : A Publication of the Protein Society, 2024).

Assays:
[1] = biological target: VPS29–VPS35C subcomplex (UniProt Q96QK1;Q9UBQ0); assay: crystal structure
[2] = biological target: VPS29 (as expressed for the complexes, pMR101A‐VPS29) (UniProt Q9UBQ0); assay: crystal structure

B1: peptide FAM21‐R21 (1328-SNIFDDPLNAFGGQ-1341) (peptide)
peptide: SNIFDDPLNAFGGQ
binding result [1]: binds | binding result [2]: binds
